Experimental data reported in patent US20140087995A1 (published 2014).
Numbered stars: 1 amine (or outer) side, 2 acyl side, 3 side chain; on linkers, the order of the positions; unused ones are H or OH. Bridge positions count the residues as written; N and C are the ends. Side chains are listed from the residue outwards. Ends that are not written are not given here. * marks the point of attachment. C20 diacid = O=C(O)CCCCCCCCCCCCCCCCCCC(=O)*; C18 diacid = O=C(O)CCCCCCCCCCCCCCCCC(=O)*; C16 diacid = O=C(O)CCCCCCCCCCCCCCC(=O)*; γGlu = O=C(O)[C@H](CCC(=O)[*:2])N[*:1]; C14 diacid = O=C(O)CCCCCCCCCCCCC(=O)*

T1: human calcitonin receptor (human, UniProt P30988 25-474)
T1 construct: whole, on cells; also called hCTR; hCT
T1 sequence (looked up): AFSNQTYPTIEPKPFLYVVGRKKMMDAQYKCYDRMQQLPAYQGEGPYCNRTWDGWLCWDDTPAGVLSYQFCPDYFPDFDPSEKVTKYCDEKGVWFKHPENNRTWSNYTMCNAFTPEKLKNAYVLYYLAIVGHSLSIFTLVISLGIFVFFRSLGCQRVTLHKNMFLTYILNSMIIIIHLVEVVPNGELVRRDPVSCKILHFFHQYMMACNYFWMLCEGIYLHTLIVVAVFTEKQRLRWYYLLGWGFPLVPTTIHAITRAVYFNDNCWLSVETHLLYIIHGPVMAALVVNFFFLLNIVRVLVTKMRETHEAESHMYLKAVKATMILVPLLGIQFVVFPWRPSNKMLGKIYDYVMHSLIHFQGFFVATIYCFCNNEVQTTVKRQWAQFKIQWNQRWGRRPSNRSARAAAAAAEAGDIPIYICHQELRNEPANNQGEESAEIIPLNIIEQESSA


How the values were obtained:
[1] = molecular target: T1, human calcitonin receptor; assay: ratio of IC50 at human calcitonin receptor to IC50 at human amylin receptor (SPA competition assays)
Outline: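 Competition binding by SPA with cell membranes (35 ng/μL) and SPA beads in 50 mM Hepes pH 7.4 with 1 mM CaCl2, 5 mM MgCl2, 0.1% OA and 0.02% Tween20. Incubated 120 min at 25 °C with shaking, then counted.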

[2] = molecular target: T1, human calcitonin receptor; assay: SPA radioligand competition (125I-calcitonin), membranes of BHK cells with human calcitonin receptor
Outline: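 BHK hCTR membranes 35 ng/μL + SPA beads 0.05 mg/well; buffer 50 mM Hepes pH 7.4, 1 mM CaCl2, 5 mM MgCl₂, 0.1% OA, 0.02% Tween20. 120 min, 25° C., shaking. Scintillation count; IC50 by one-site binding competition.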

Row | Ratio hCT/hAmylin binding [1] | IC50 [2] | Binder
1 | 18.5 | 10.8 nM | K([γGlu-C16 diacid])CNTATCATQRLANFLRHSSPNFGAIPSSTNVGHNTY-NH2 (disulfide 2-7; N-terminus assumed; SMILES CC[C@H](C)[C@H](NC(=O)[C@H](C)NC(=O)CNC(=O)[C@H](Cc1ccccc1)NC(=O)[C@H](CC(N)=O)NC(=O)[C@@H]1CCCN1C(=O)[C@H](CO)NC(=O)[C@H](CO)NC(=O)[C@H](Cc1c[nH]cn1)NC(=O)[C@H](CCCNC(=N)N)NC(=O)[C@H](CC(C)C)NC(=O)[C@H](Cc1ccccc1)NC(=O)[C@H](CC(N)=O)NC(=O)[C@H](C)NC(=O)[C@H](CC(C)C)NC(=O)[C@H](CCCNC(=N)N)NC(=O)[C@H](CCC(N)=O)NC(=O)[C@@H](NC(=O)[C@H](C)NC(=O)[C@@H]1CSSC[C@H](NC(=O)[C@@H](N)CCCCNC(=O)CC[C@H](NC(=O)CCCCCCCCCCCCCCC(=O)O)C(=O)O)C(=O)N[C@@H](CC(N)=O)C(=O)N[C@@H]([C@@H](C)O)C(=O)N[C@@H](C)C(=O)N[C@@H]([C@@H](C)O)C(=O)N1)[C@@H](C)O)C(=O)N1CCC[C@H]1C(=O)N[C@@H](CO)C(=O)N[C@@H](CO)C(=O)N[C@H](C(=O)N[C@@H](CC(N)=O)C(=O)N[C@H](C(=O)NCC(=O)N[C@@H](Cc1c[nH]cn1)C(=O)N[C@@H](CC(N)=O)C(=O)N[C@H](C(=O)N[C@@H](Cc1ccc(O)cc1)C(N)=O)[C@@H](C)O)C(C)C)[C@@H](C)O) [N^ε1-[(4S)-4-carboxy-4-(15-carboxypentadecanoylamino)butanoyl]-[Arg17,Pro21,Pro27,His34]-h-amylin]
2 | 23.5 | 24.3 nM | K([γGlu-C14 diacid])CNTATCATQRLANFLRHSSPNFGAIPSSTNVGHNTY-NH2 (disulfide 2-7; N-terminus assumed; SMILES CC[C@H](C)[C@H](NC(=O)[C@H](C)NC(=O)CNC(=O)[C@H](Cc1ccccc1)NC(=O)[C@H](CC(N)=O)NC(=O)[C@@H]1CCCN1C(=O)[C@H](CO)NC(=O)[C@H](CO)NC(=O)[C@H](Cc1c[nH]cn1)NC(=O)[C@H](CCCNC(=N)N)NC(=O)[C@H](CC(C)C)NC(=O)[C@H](Cc1ccccc1)NC(=O)[C@H](CC(N)=O)NC(=O)[C@H](C)NC(=O)[C@H](CC(C)C)NC(=O)[C@H](CCCNC(=N)N)NC(=O)[C@H](CCC(N)=O)NC(=O)[C@@H](NC(=O)[C@H](C)NC(=O)[C@@H]1CSSC[C@H](NC(=O)[C@@H](N)CCCCNC(=O)CC[C@H](NC(=O)CCCCCCCCCCCCC(=O)O)C(=O)O)C(=O)N[C@@H](CC(N)=O)C(=O)N[C@@H]([C@@H](C)O)C(=O)N[C@@H](C)C(=O)N[C@@H]([C@@H](C)O)C(=O)N1)[C@@H](C)O)C(=O)N1CCC[C@H]1C(=O)N[C@@H](CO)C(=O)N[C@@H](CO)C(=O)N[C@H](C(=O)N[C@@H](CC(N)=O)C(=O)N[C@H](C(=O)NCC(=O)N[C@@H](Cc1c[nH]cn1)C(=O)N[C@@H](CC(N)=O)C(=O)N[C@H](C(=O)N[C@@H](Cc1ccc(O)cc1)C(N)=O)[C@@H](C)O)C(C)C)[C@@H](C)O) [N^ε1-[(4S)-4-carboxy-4-(13-carboxytridecanoylamino)butanoyl]-[Arg17,Pro21,Pro27,His34]-h-amylin]
3 | 36.2 | 7.87 nM | {C20 diacid-γGlu}-GRCNTATCATQRLAHFLRHSSPNFGAIPSSTNVGPNTY-NH2 (disulfide 3-8; SMILES CC[C@H](C)[C@H](NC(=O)[C@H](C)NC(=O)CNC(=O)[C@H](Cc1ccccc1)NC(=O)[C@H](CC(N)=O)NC(=O)[C@@H]1CCCN1C(=O)[C@H](CO)NC(=O)[C@H](CO)NC(=O)[C@H](Cc1c[nH]cn1)NC(=O)[C@H](CCCNC(=N)N)NC(=O)[C@H](CC(C)C)NC(=O)[C@H](Cc1ccccc1)NC(=O)[C@H](Cc1c[nH]cn1)NC(=O)[C@H](C)NC(=O)[C@H](CC(C)C)NC(=O)[C@H](CCCNC(=N)N)NC(=O)[C@H](CCC(N)=O)NC(=O)[C@@H](NC(=O)[C@H](C)NC(=O)[C@@H]1CSSC[C@H](NC(=O)[C@H](CCCNC(=N)N)NC(=O)CNC(=O)CC[C@H](NC(=O)CCCCCCCCCCCCCCCCCCC(=O)O)C(=O)O)C(=O)N[C@@H](CC(N)=O)C(=O)N[C@@H]([C@@H](C)O)C(=O)N[C@@H](C)C(=O)N[C@@H]([C@@H](C)O)C(=O)N1)[C@@H](C)O)C(=O)N1CCC[C@H]1C(=O)N[C@@H](CO)C(=O)N[C@@H](CO)C(=O)N[C@H](C(=O)N[C@@H](CC(N)=O)C(=O)N[C@H](C(=O)NCC(=O)N1CCC[C@H]1C(=O)N[C@@H](CC(N)=O)C(=O)N[C@H](C(=O)N[C@@H](Cc1ccc(O)cc1)C(N)=O)[C@@H](C)O)C(C)C)[C@@H](C)O)
4 | 100 | 35 nM | {C20 diacid-γGlu}-GRCNTATCATQRLAHFLRHSSPNFGAIPSSTNVGSNTY-NH2 (disulfide 3-8; SMILES CC[C@H](C)[C@H](NC(=O)[C@H](C)NC(=O)CNC(=O)[C@H](Cc1ccccc1)NC(=O)[C@H](CC(N)=O)NC(=O)[C@@H]1CCCN1C(=O)[C@H](CO)NC(=O)[C@H](CO)NC(=O)[C@H](Cc1c[nH]cn1)NC(=O)[C@H](CCCNC(=N)N)NC(=O)[C@H](CC(C)C)NC(=O)[C@H](Cc1ccccc1)NC(=O)[C@H](Cc1c[nH]cn1)NC(=O)[C@H](C)NC(=O)[C@H](CC(C)C)NC(=O)[C@H](CCCNC(=N)N)NC(=O)[C@H](CCC(N)=O)NC(=O)[C@@H](NC(=O)[C@H](C)NC(=O)[C@@H]1CSSC[C@H](NC(=O)[C@H](CCCNC(=N)N)NC(=O)CNC(=O)CC[C@H](NC(=O)CCCCCCCCCCCCCCCCCCC(=O)O)C(=O)O)C(=O)N[C@@H](CC(N)=O)C(=O)N[C@@H]([C@@H](C)O)C(=O)N[C@@H](C)C(=O)N[C@@H]([C@@H](C)O)C(=O)N1)[C@@H](C)O)C(=O)N1CCC[C@H]1C(=O)N[C@@H](CO)C(=O)N[C@@H](CO)C(=O)N[C@H](C(=O)N[C@@H](CC(N)=O)C(=O)N[C@H](C(=O)NCC(=O)N[C@@H](CO)C(=O)N[C@@H](CC(N)=O)C(=O)N[C@H](C(=O)N[C@@H](Cc1ccc(O)cc1)C(N)=O)[C@@H](C)O)C(C)C)[C@@H](C)O, also called compound 99)
5 | 59.4 | 22.7 nM | K([γGlu-C18 diacid])CNTATCATQRLANFLRHSSPNFGAIPSSTNVGHNTY-NH2 (disulfide 2-7; N-terminus assumed; SMILES CC[C@H](C)[C@H](NC(=O)[C@H](C)NC(=O)CNC(=O)[C@H](Cc1ccccc1)NC(=O)[C@H](CC(N)=O)NC(=O)[C@@H]1CCCN1C(=O)[C@H](CO)NC(=O)[C@H](CO)NC(=O)[C@H](Cc1c[nH]cn1)NC(=O)[C@H](CCCNC(=N)N)NC(=O)[C@H](CC(C)C)NC(=O)[C@H](Cc1ccccc1)NC(=O)[C@H](CC(N)=O)NC(=O)[C@H](C)NC(=O)[C@H](CC(C)C)NC(=O)[C@H](CCCNC(=N)N)NC(=O)[C@H](CCC(N)=O)NC(=O)[C@@H](NC(=O)[C@H](C)NC(=O)[C@@H]1CSSC[C@H](NC(=O)[C@@H](N)CCCCNC(=O)CC[C@H](NC(=O)CCCCCCCCCCCCCCCCC(=O)O)C(=O)O)C(=O)N[C@@H](CC(N)=O)C(=O)N[C@@H]([C@@H](C)O)C(=O)N[C@@H](C)C(=O)N[C@@H]([C@@H](C)O)C(=O)N1)[C@@H](C)O)C(=O)N1CCC[C@H]1C(=O)N[C@@H](CO)C(=O)N[C@@H](CO)C(=O)N[C@H](C(=O)N[C@@H](CC(N)=O)C(=O)N[C@H](C(=O)NCC(=O)N[C@@H](Cc1c[nH]cn1)C(=O)N[C@@H](CC(N)=O)C(=O)N[C@H](C(=O)N[C@@H](Cc1ccc(O)cc1)C(N)=O)[C@@H](C)O)C(C)C)[C@@H](C)O) [N^ε1-[(4S)-4-carboxy-4-(17-carboxyheptadecanoylamino)butanoyl]-[Arg17,Pro21,Pro27,His34]-h-amylin]
